The target in this assay is T1, human gastric inhibitory peptide receptor (hGIPR) (Homo sapiens, UniProt P48546).
T1 construct: expressed in transfected cells; host or cells: HEK293
T1 sequence (P48546 22-466): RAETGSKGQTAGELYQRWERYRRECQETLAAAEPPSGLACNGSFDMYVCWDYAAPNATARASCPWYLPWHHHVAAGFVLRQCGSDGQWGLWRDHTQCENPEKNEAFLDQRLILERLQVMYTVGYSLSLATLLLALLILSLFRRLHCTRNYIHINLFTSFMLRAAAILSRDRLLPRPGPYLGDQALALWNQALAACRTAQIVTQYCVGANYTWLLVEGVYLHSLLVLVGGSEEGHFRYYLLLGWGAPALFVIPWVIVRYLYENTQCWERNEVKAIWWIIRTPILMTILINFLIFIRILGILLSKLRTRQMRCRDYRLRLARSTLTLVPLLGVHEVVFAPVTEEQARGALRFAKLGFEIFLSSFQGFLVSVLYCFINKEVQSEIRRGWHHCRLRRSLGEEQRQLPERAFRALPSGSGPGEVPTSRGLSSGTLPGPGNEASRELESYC
The assay can be described thus: cAMP pharmacological functional assay in presence of 0.1% casein, hGIPR. In kind it is cell-based. To be noted: ratio of hGIPR to hGLP1R cAMP EC50 ratios.

The values that follow come from patent US12295987B2, “Method of using a GIP/GLP1 co-agonist for diabetes” (Eli Lilly and Company, priority 2018, dated 2025).

In the case of “Y-Aib-EGT-αMeF(2F)-TSDYSI-αMeL-LDEK((2-[2-(2-Amino-ethoxy)-ethoxy]-acetyl)2-(εK)-CO—(CH2)18—CO2H)AQ-Aib-EFI-(D-Glu)-YLIEGGPSSGAPPPS-NH2 (YXEGTXTSDYSIXLDEKAQXEFIXYLIEGGPSSGAPPPS; Aib, αMeF(2F), αMeL, D-Glu; εK-lipidated K; amide; (2)..(2) Xaa at position 2 is Aib; (6)..(6) Xaa at position 6 is alpha-methyl-Phe(2F); (13)..(13) Xaa at position 13 is alpha-methyl-Leu; MOD_RES (17)..(17) Lys at position 17 is chemically modified by conjugation of the epsilon-amino group of the Lys side chain with (2-[2-(2-amino-ethoxy)-ethoxy]-acetyl)2-(epsilon-Lys)-CO-(CH2)18- CO2H; (20)..(20) Xaa at position 20 is Aib; (24)..(24) Xaa at posi) [Peptide 216]”, the “[hGIPR/hGLP1R] EC50 Ratio” value is recorded as 3.75.
Next, “Y-Aib-EGT-αMeF(2F)-TSDYSI-αMeL-LDEK((2-[2-(2-Amino-ethoxy)-ethoxy]-acetyl)2-CO—(CH2)16—CO2H)AQ-Aib-EFI-(D-Glu)-YLIEGGPSSGAPPPS-NH2 (YXEGTXTSDYSIXLDEKAQXEFIXYLIEGGPSSGAPPPS; Aib, αMeF(2F), αMeL, D-Glu; lipidated K; amide; (2)..(2) Xaa at position 2 is Aib; (6)..(6) Xaa at position 6 is alpha-methyl-Phe(2F); (13)..(13) Xaa at position 13 is alpha-methyl-Leu; MOD_RES (17)..(17) Lys at position 17 is chemically modified by conjugation of the epsilon-amino group of the Lys side chain with (2-[2-(2-amino-ethoxy)-ethoxy]-acetyl)2-CO-(CH2)16-CO2H; (20)..(20) Xaa at position 20 is Aib; (24)..(24) Xaa at position 24 is D-Gl) [Peptide 214]”: 3.98.
For “Y-Aib-EGT-αMeF(2F)-TSDYSI-αMeL-LDEK((2-[2-(2-Amino-ethoxy)-ethoxy]-acetyl)2-CO—(CH2)18—CO2H)AQ-Aib-EFI-(D-Glu)-YLIEGGPSSGAPPPS-NH2 (YXEGTXTSDYSIXLDEKAQXEFIXYLIEGGPSSGAPPPS; Aib, αMeF(2F), αMeL, D-Glu; lipidated K; amide; (2)..(2) Xaa at position 2 is Aib; (6)..(6) Xaa at position 6 is alpha-methyl-Phe(2F); (13)..(13) Xaa at position 13 is alpha-methyl-Leu; MOD_RES (17)..(17) Lys at position 17 is chemically modified by conjugation of the epsilon-amino group of the Lys side chain with (2-[2-(2-amino-ethoxy)-ethoxy]-acetyl)2-CO-(CH2)18-CO2H; (20)..(20) Xaa at position 20 is Aib; (24)..(24) Xaa at position 24 is D-Gl) [Peptide 215]”, the “[hGIPR/hGLP1R] EC50 Ratio” value was found to be 4.34.
Next, “Y-Aib-EGT-αMeF(2F)-TSDYSI-αMeL-LDHK((2-[2-(2-Amino-ethoxy)-ethoxy]-acetyl)2-(γGlu)-CO—(CH2)18—CO2H)AQ-Aib-EFI-(D-Glu)-YLIEGGPSSGAPPPS-NH2 (YXEGTXTSDYSIXLDHKAQXEFIXYLIEGGPSSGAPPPS; Aib, αMe residues, lipidated Lys, D-Glu, C-terminal amide; (2)..(2) Xaa at position 2 is Aib; (6)..(6) Xaa at position 6 is alpha-methyl-Phe(2F); (13)..(13) Xaa at position 13 is alpha-methyl-Leu; MOD_RES (17)..(17) Lys at position 17 is chemically modified by conjugation of the epsilon-amino group of the Lys side chain with (2-[2-(2-amino-ethoxy)-ethoxy]-acetyl)2-(gamma-Glu)-CO-(CH2)18- CO2H; (20)..(20) Xaa at position 20 is Aib; (24)..(24) Xaa at positi) [Peptide 230]”: 5.53; “Y-Aib-EGT-αMeF(2F)-TSDYSI-αMeL-LDKK((2-[2-(2-Amino-ethoxy)-ethoxy]-acetyl)2-(γGlu)-CO—(CH2)18—CO2H)AQ-Aib-EFI-(D-Glu)-YLIEGGPSSGAPPPS-NH2 (YXEGTXTSDYSIXLDKKAQXEFIXYLIEGGPSSGAPPPS; Aib, αMeF(2F), αMeL, D-Glu; lipidated K; amide; (2)..(2) Xaa at position 2 is Aib; (6)..(6) Xaa at position 6 is alpha-methyl-Phe(2F); (13)..(13) Xaa at position 13 is alpha-methyl-Leu; MOD_RES (17)..(17) Lys at position 17 is chemically modified by conjugation of the epsilon-amino group of the Lys side chain with (2-[2-(2-amino-ethoxy)-ethoxy]-acetyl)2-(gamma-Glu)-CO-(CH2)18- CO2H; (20)..(20) Xaa at position 20 is Aib; (24)..(24) Xaa at positi) [Peptide 212]”: 5.41; “Y-Aib-EGT-αMeF(2F)-TSDYSI-αMeL-LDKK((2-[2-(2-Amino-ethoxy)-ethoxy]-acetyl)-(γGlu)-(2-[2-(2-Amino-ethoxy)-ethoxy]-acetyl)-CO—(CH2)18—CO2H)AQ-Aib-EFI-(D-Glu)-YLIEGGPSSGAPPPS-NH2 (YXEGTXTSDYSIXLDKKAQXEFIXYLIEGGPSSGAPPPS; Aib, αMeF(2F), αMeL, D-Glu; lipidated K; amide; (2)..(2) Xaa at position 2 is Aib; (6)..(6) Xaa at position 6 is alpha-methyl-Phe(2F); (13)..(13) Xaa at position 13 is alpha-methyl-Leu; MOD_RES (17)..(17) Lys at position 17 is chemically modified by conjugation of the epsilon-amino group of the Lys side chain with (2-[2-(2-Amino-ethoxy)-ethoxy]-acetyl)-(gamma-Glu)-(2-[2-(2-Amino- ethoxy)-ethoxy]-acetyl)-CO-(CH2)18-CO2H; (20)..(20) Xaa at positi) [Peptide 211]”: 3.59.
For “Y-Aib-EGT-αMeF(2F)-TSDYSILLD-Orn-K((2-[2-(2-Amino-ethoxy)-ethoxy]-acetyl)2-(γGlu)-CO—(CH2)16—CO2H)AQ-Aib-EFI-(D-Glu)-YLIEGGPSSGAPPPS-NH2 (YXEGTXTSDYSILLDXKAQXEFIXYLIEGGPSSGAPPPS; Aib, Orn, αMeF(2F), lipidated Lys, D-Glu, amide; (2)..(2) Xaa at position 2 is Aib; (6)..(6) Xaa at position 6 is alpha-methyl-Phe(2F); (16)..(16) Xaa at position 16 is Orn; MOD_RES (17)..(17) Lys at position 17 is chemically modified by conjugation of the epsilon-amino group of the Lys side chain with (2-[2-(2-amino-ethoxy)-ethoxy]-acetyl)2-(gamma-Glu)-CO-(CH2)16- CO2H; (20)..(20) Xaa at position 20 is Aib; (24)..(24) Xaa at position 24 is D-Gl) [Peptide 248]” the value was 6.35.
Next, “Y-Aib-EGT-αMeF(2F)-TSDYSILLDEK((2-[2-(2-Amino-ethoxy)-ethoxy]-acetyl)2-(γGlu)-CO—(CH2)18—CO2H)AQ-Aib-EFI-(D-Glu)-YLIEGGPSSGAPPPS-NH2 (YXEGTXTSDYSILLDEKAQXEFIXYLIEGGPSSGAPPPS; Aib, αMeF(2F), D-Glu; lipidated K; amide; (2)..(2) Xaa at position 2 is Aib; (6)..(6) Xaa at position 6 is alpha-methyl-Phe(2F); MOD_RES (17)..(17) Lys at position 17 is chemically modified by conjugation of the epsilon-amino group of the Lys side chain with (2-[2-(2-amino-ethoxy)-ethoxy]-acetyl)2-(gamma-Glu)-CO-(CH2)18- CO2H; (20)..(20) Xaa at position 20 is Aib; (24)..(24) Xaa at position 24 is D-Glu; MOD_RES (39)..(39) Ser at position) [Peptide 226]”: 3.42; “Y-Aib-EGT-αMeF-TSDHSILLDKK((2-[2-(2-Amino-ethoxy)-ethoxy]-acetyl)2-(γGlu)-CO—(CH2)18—CO2H)AQ-Aib-AFIEYLIEGGPSSGAPPPS-NH2 (YXEGTXTSDHSILLDKKAQXAFIEYLIEGGPSSGAPPPS; Aib, αMeF; acylated lysine C20 diacid; amide; (2)..(2) Xaa at position 2 is Aib; (6)..(6) Xaa at position 6 is alpha-methyl-Phe; MOD_RES (17)..(17) Lys at position 17 is chemically modified by conjugation of the epsilon-amino group of the Lys side chain with (2-[2-(2-amino-ethoxy)-ethoxy]-acetyl)2-(gamma-Glu)-CO-(CH2)18- CO2H; (20)..(20) Xaa at position 20 is Aib; MOD_RES (39)..(39) Ser at position 39 is amidated) [Peptide 128]”: 3.51.
